The values below come from patent US20160002326A1 (AbbVie / Abbott, published 2016).

One test deals with T1, mouse TNF (mouse, UniProt P06804 80-235).
T1 construct: also called murine TNF; rodent TNF (mouse)
T1 sequence (looked up): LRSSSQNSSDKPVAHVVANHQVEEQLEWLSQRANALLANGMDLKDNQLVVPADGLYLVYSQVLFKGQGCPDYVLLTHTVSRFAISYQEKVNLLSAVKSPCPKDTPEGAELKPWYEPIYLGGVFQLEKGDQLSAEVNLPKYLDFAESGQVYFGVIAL
As to the kind of experiment: assay not stated (Table 5, 'Source And Binding Information').

The target of a further test is T2, mouse IL-17 (mouse, UniProt Q62386 26-158, limits assumed).
T2 construct: also called mouse IL-17A; rodent IL-17 (mouse)
T2 sequence (looked up): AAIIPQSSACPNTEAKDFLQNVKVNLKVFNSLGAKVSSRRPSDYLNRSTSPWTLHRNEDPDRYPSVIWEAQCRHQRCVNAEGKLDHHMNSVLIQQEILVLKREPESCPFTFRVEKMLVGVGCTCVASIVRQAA
Described as above.

B1: anti-murine TNF antibody 8C11 (antibody, mouse IgG2c, V domains shown)
VH: EFQLQQSGPELVKPGASVRISCKASGYSFTDYNMNWVKQSNGKSLEWVGVINPNYGSSTYNQKFKGKATLTVDQSSSTAYMQLNSLTSEDSAVYYCARKWGQLGRGFFDVWGTGTTVTVSS
VL: QIVLSQSPAILSASPGEKVTMTCRASSSVSYMHWFQQKPGSSPKPWIYATSNLASGVPARFSGSGSGTSYSLTISRVEAEDAATYYCQQWSSSPLTFGAGTKLELKR
notes: also called 8C11 anti-TNF Ab; Anti-TNF
The term IC50 denotes the concentration that gives 50% inhibition. In the case of B1, the IC50 with mouse TNF was 2 nM. That is a single-digit nanomolar value.

B2: 8C11/10F7M11 anti-TNF/IL-17 DVD-Ig protein (bispecific antibody, human IgG1, kappa, L234A L235A)
heavy: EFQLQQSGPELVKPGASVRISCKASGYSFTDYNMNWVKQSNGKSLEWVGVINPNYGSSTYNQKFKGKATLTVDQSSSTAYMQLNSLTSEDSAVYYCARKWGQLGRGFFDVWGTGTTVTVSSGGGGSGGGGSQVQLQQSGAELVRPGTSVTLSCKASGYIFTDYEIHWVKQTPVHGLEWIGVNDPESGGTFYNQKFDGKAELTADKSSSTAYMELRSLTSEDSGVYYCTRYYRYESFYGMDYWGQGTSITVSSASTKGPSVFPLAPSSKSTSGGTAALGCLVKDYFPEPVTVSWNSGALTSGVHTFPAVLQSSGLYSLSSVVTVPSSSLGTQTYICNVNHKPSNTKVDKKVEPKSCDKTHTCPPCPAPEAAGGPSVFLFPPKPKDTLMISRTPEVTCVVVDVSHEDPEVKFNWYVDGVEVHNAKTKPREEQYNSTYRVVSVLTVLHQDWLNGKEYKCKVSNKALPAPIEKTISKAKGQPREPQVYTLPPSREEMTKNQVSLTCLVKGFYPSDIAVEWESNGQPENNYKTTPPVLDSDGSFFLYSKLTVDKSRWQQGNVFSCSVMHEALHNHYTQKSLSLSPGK
light: QIVLSQSPAILSASPGEKVTMTCRASSSVSYMHWFQQKPGSSPKPWIYATSNLASGVPARFSGSGSGTSYSLTISRVEAEDAATYYCQQWSSSPLTFGAGTKLELKRGGSGGGGSGQIVLTQSPAIMSASPGEKVTMTCSASSSISYIYWFQQKPGTSPKRWIYATFELASGVPARFSGSGSGTSYSLTISSMEAEDAATYYCHQRSSYPWTFGGGSKLEIKRTVAAPSVFIFPPSDEQLKSGTASVVCLLNNFYPREAKVQWKVDNALQSGNSQESVTEQDSKDSTYSLSSTLTLSKADYEKHKVYACEVTHQGLSSPVTKSFNRGEC
notes: also called 8C11/10F7 DVD-Ig protein; anti-mouse TNF/IL-17 DVD-Ig
As to B2, the IC50 with mouse TNF worked out at 2 nM; with mouse IL-17, 0.13 nM.
